The record followed here is US20190300590A1 (PROTAGONIST THERAPEUTICS, published 2019).

In assay [1] the target is T1, IL23R_huFC (human, UniProt Q5VWK5 24-353).
T1 sequence (looked up): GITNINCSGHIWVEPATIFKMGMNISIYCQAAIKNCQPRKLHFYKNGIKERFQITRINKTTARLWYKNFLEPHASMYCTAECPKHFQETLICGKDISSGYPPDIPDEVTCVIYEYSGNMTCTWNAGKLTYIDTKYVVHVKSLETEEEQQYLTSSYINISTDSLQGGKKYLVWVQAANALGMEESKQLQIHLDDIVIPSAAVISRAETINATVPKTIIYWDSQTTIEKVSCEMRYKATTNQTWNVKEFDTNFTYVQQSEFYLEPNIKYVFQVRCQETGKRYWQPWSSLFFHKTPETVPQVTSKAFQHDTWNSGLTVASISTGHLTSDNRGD
The assay is described as follows: IL23-IL23R competitive binding ELISA. In general terms: An ELISA detects its analyte on a solid surface through an enzyme-linked reagent.

In assay [2] the target is T2, Rat IL-23R_huFC (rat, UniProt F1LX96 39-369).
T2 sequence: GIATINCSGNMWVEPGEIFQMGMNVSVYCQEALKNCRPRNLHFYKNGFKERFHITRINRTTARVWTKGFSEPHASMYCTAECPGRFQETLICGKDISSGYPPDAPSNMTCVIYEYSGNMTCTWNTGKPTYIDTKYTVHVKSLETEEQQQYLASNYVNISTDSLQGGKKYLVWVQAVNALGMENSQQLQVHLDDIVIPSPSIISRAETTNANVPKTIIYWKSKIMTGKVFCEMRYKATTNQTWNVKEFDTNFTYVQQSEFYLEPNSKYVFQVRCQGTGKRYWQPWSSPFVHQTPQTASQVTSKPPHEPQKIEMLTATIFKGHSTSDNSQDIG
In words: rat IL-23R competitive binding ELISA.

Assay [3] concerns the target Rat IL-23R_huFC (rat). The assay is described as follows: rat ELISA vs IL-23.
Assay [4] concerns the target T3, IL23R_huFC (human, UniProt Q5VWK5 24-353).
T3 sequence (looked up): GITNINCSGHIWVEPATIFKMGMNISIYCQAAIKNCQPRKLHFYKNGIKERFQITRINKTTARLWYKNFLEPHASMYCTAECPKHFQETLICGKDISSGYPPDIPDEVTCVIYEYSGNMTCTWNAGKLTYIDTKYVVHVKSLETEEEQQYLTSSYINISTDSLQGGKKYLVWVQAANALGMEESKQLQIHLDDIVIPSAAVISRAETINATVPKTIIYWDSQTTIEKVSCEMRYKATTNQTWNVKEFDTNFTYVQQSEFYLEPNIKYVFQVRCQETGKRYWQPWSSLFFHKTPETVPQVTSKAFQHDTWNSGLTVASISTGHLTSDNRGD
In words: human ELISA vs IL-23.

Assay [5] concerns the target T4, IL-23R on DB cells (human, UniProt Q5VWK5 24-629).
T4 sequence (looked up): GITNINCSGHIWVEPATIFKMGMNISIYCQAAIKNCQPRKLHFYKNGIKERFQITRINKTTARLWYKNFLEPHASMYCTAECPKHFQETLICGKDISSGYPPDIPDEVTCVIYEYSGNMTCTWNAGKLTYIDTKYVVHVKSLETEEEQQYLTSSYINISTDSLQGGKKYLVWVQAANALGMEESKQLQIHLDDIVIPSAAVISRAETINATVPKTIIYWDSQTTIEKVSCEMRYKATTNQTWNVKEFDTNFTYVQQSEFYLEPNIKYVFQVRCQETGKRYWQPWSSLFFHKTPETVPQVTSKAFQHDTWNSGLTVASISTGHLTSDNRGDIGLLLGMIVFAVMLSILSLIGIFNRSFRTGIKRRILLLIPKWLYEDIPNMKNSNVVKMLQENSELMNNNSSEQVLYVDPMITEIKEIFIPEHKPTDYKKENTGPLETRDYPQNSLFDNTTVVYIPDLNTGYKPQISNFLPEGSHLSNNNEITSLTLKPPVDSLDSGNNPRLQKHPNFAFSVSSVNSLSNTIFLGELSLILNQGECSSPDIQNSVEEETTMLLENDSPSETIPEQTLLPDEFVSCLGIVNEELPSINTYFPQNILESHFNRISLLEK
The assay is described as follows: cell-based or functional assay.

Broadly, the IC50 is the point on the concentration scale where inhibition reaches its midpoint.

*1 amine or outer side, *2 acyl side, *3 side chain or, on linkers, in order; H or OH if unused. Bridges are numbered along the chain shown (N, C = ends). Primed or numbered codes have the meaning given here. [ ]: non-standard residue; d: D form. Phe(4-OMe)(3) = O-methyl-L-tyrosine (4-methoxy-L-phenylalanine), COc1ccc(C[C@H](N[*:1])C(=O)[*:2])cc1; Phe(4-OMe) = 4-methoxy-L-phenylalanine (O-methyl-L-tyrosine), COc1ccc(C[C@H](N[*:1])C(=O)[*:2])cc1; 2Nal = N[C@@H](Cc1ccc2ccccc2c1)C(=O)O; AEF = NCCOc1ccc(C[C@H](N)C(=O)O)cc1; Suc = O=C(CCC(=O)[*:2])[*:1]; αMeK = C[C@](N)(CCCCN)C(=O)O; Abu = CC[C@H](N)C(=O)O

B1: Ac-[Pen]-QTWQ-[Pen]-YW-[α-MeLys]-[Lys(Ac)]-NG-NH2 (peptide)
peptide: XQTWQXYWKKNG
modifications: Ac; Pen-Pen disulfide; α-MeLys; Lys(Ac); NH2
Consider B1, for which the IC50 in assay [1] fell in the range of 0.1 to 1 µM.

B2: Ac-[Pen]-QTWQ-[Pen]-[Phe-(4-OMe)]-W-[α-MeLys]-[Lys(Ac)]-NG-NH2 (peptide)
peptide: XQTWQXFWKKNG
modifications: Ac; Pen-Pen disulfide; Phe(4-OMe); α-MeLys; Lys(Ac); NH2
The molecule B2 had an IC50 in assay [2] of 0.025 to 0.1 µM.

B3: Ac-[Pen]-QTWQ-[Pen]-[Phe(4-OMe)]-[1-Nal]-[α-MeLys]-[Lys(Ac)]-NG-NH2 (peptide)
peptide: XQTWQXFXKKNG
modifications: Ac; Pen-Pen disulfide; Phe(4-OMe); 1-Nal; α-MeLys; Lys(Ac); NH2
B3 yielded an IC50 in assay [2] of 0.1 to 1 µM.

B4: glutaric acid-[Pen]-QTWQ[Pen]-[Phe(4-OMe)]-[2-Nal]-[α-MeLys]-[Lys(Ac)]-NG-NH2 (peptide)
peptide: XQTWQXFXKKNG
modifications: N-terminal glutaric acid; Pen-Pen disulfide; Phe(4-OMe); 2-Nal; α-MeLys; Lys(Ac); NH2
On to B4, for which the half-maximal inhibitory concentration (IC50) in assay [2] is 0.025 to 0.1 µM.

B5: Ac-[Pen]-QTWQ-[Pen]-YW-[hLeu]-ENG-NH2 (peptide)
peptide: XQTWQXYWLENG
modifications: Ac; Pen-Pen disulfide; hLeu; NH2
Molecule B5 had a concentration for half-maximal inhibition (IC50) in assay [1] of 0.1 to 1 µM.

B6: Ac-Cyclo-[[Abu]-QTWQC]-[Phe(4-OMe)]-W-[α-MeLys]-[Lys(Ac)]-NG-NH2 (peptide)
peptide: Ac-[Abu]QTWQC[Phe(4-OMe)]W[αMeK]K(Ac)NG-NH2
modifications: thioether 1-6
For B6, the half-inhibitory concentration (IC50) in assay [3] and in assay [4] was 0.01 to 0.025 µM in each case.

B7: Ac-Cyclo-[[Abu]-QTWQC]-[Phe[4-(2-aminoethoxy)]]-[2-Nal]-[α-MeLys]-[Lys(succinic acid)]-NG-NH2 (peptide)
peptide: Ac-[Abu]QTWQC[AEF][2Nal][αMeK]K(Suc)NG-NH2
modifications: thioether 1-6
Regarding B7, the concentration for half-maximal inhibition (IC50) in assay [3] lay within 0.01 to 0.025 µM.

B8: isovaleric acid-[Pen]-QTWQ[Pen]-[Phe(4-OMe)]-[2-Nal]-[α-MeLys]-[Lys(Ac)]-NG-NH2 (peptide)
peptide: XQTWQXFXKKNG
modifications: N-terminal isovaleric acid; Pen-Pen disulfide; Phe(4-OMe); 2-Nal; α-MeLys; Lys(Ac); NH2
In assay [2], B8 returned an IC50 of 0.025 to 0.1 µM.

B9: Ac-Cyclo-[[Abu]-QTWQC]-[Phe(4-OMe)]-[2-Nal][α-MeLys]-[Lys(Ac)]-NG-NH2 (peptide)
peptide: Ac-[Abu]QTWQC[Phe(4-OMe)(3)][2Nal][αMeK]K(Ac)NG-NH2
modifications: thioether 1-6
On to B9, for which the 50% inhibitory concentration (IC50) in assay [3] was 0.01 to 0.025 µM.

B10: Ac-[Pen]-QTWQ-[Pen]-[Phe(4-OMe)]-[2-Nal]-[α-MeLys]-[Lys(Ac)]-NG-NH2 (peptide)
peptide: XQTWQXFXKKNG
modifications: Ac; Pen-Pen disulfide; Phe(4-OMe); 2-Nal; α-MeLys; Lys(Ac); NH2
In assay [2], B10 displayed an IC50 of 0.025 to 0.1 µM.

B11: Ac-[Pen]-QTWQ-[Pen]-[Phe(4-CONH2)]-[2-Nal]-[α-MeLys]-[Lys(Ac)]-NN-NH2 (peptide)
peptide: XQTWQXFXKKNN
modifications: Ac; Pen-Pen disulfide; Phe(4-CONH2); 2-Nal; α-MeLys; Lys(Ac); NH2
B11 registered a 50% inhibitory concentration (IC50) in assay [2] of 0.025 to 0.1 µM.

B12: Ac-[Pen]-QTWQ-[Pen]-[Phe(4-CONH2)]-[2-Nal]-[α-MeVal]-[Lys(Ac)]-NN-NH2 (peptide)
peptide: XQTWQXFXVKNN
modifications: Ac; Pen-Pen disulfide; Phe(4-CONH2); 2-Nal; α-MeVal; Lys(Ac); NH2
Turning to B12, the IC50 in assay [2] was in the range of 0.01 to 0.025 µM.

B13: Ac-[Pen]-QTWQ-[Pen]-[Phe[4-(2-acetylaminoethoxy)]-[2-Nal]-[α-MeLys(Ac)]-ENA-NH2 (peptide)
peptide: XQTWQXFXKENA
modifications: Ac; Pen-Pen disulfide; Phe[4-(2-acetylaminoethoxy)]; 2-Nal; α-MeLys(Ac); NH2
In assay [1], B13 had an IC50 of 0.01 to 0.025 µM. For the same molecule, in assay [5], the “pStat3 HTRF IC50” value was less than 10 nM.

B14: Ac-[Pen]-QTWQ-[Pen]-[Phe[4-(2-acetylaminoethoxy)]-[2-Nal]-[α-MeLeu]-QNN-NH2 (peptide)
peptide: XQTWQXFXLQNN
modifications: Ac; Pen-Pen disulfide; Phe[4-(2-acetylaminoethoxy)]; 2-Nal; α-MeLeu; NH2
Take B14: the IC50 in assay [1] is less than 0.01 µM. Also, the “pStat3 HTRF IC50” value in assay [5] is less than 10 nM.

B15: Ac-[Pen]-QTWQ-[Pen]-[Phe[4-(2-aminoethoxy)]-[2-Nal]-[α-MeLys]-[Lys(Ac)]-NN-NH2 (peptide)
peptide: XQTWQXFXKKNN
modifications: Ac; Pen-Pen disulfide; Phe[4-(2-aminoethoxy)]; 2-Nal; α-MeLys; Lys(Ac); NH2
For the molecule B15, the IC50 in assay [2] lay in the range of 0.01 to 0.025 µM.

B16: Ac-[Pen]-QTWQ-[Pen]-[Phe[4-(2-acetylaminoethoxy)]-[2-Nal]-[α-MeLeu]-[Lys(Ac)]-NN-NH2 (peptide)
peptide: XQTWQXFXLKNN
modifications: Ac; Pen-Pen disulfide; Phe[4-(2-acetylaminoethoxy)]; 2-Nal; α-MeLeu; Lys(Ac); NH2
For B16, the IC50 in assay [1] was less than 0.01 µM. Further, the “pStat3 HTRF IC50” value in assay [5] was less than 10 nM.

B17: succinic acid-[Pen]-QTWQ[Pen]-[Phe(4-OMe)]-[2-Nal]-[α-MeLys]-[Lys(Ac)]-NG-NH2 (peptide)
peptide: XQTWQXFXKKNG
modifications: N-terminal succinic acid; Pen-Pen disulfide; Phe(4-OMe); 2-Nal; α-MeLys; Lys(Ac); NH2
Regarding B17, in assay [2], the IC50 is 0.025 to 0.1 µM.

B18: Ac-[Pen]-RTWQ-[Pen]-YWRKFG-[AEA]-[(D)-Lys]-NH2 (peptide)
peptide: XRTWQXYWRKFGXK
modifications: Ac; Pen-Pen disulfide; AEA; (D)-Lys; NH2
Molecule B18 returned a half-maximal inhibitory concentration (IC50) in assay [2] of 0.025 to 0.1 µM.
